According to patent US20150010495A1:

target: […]n, n = 5 (100-mer), non-glycosylated (human); assay: peptide ELISA, OD 492 nm; limit of the class, member by Table 2; reference: 20-mer
Sequence (peptide, as listed by the source): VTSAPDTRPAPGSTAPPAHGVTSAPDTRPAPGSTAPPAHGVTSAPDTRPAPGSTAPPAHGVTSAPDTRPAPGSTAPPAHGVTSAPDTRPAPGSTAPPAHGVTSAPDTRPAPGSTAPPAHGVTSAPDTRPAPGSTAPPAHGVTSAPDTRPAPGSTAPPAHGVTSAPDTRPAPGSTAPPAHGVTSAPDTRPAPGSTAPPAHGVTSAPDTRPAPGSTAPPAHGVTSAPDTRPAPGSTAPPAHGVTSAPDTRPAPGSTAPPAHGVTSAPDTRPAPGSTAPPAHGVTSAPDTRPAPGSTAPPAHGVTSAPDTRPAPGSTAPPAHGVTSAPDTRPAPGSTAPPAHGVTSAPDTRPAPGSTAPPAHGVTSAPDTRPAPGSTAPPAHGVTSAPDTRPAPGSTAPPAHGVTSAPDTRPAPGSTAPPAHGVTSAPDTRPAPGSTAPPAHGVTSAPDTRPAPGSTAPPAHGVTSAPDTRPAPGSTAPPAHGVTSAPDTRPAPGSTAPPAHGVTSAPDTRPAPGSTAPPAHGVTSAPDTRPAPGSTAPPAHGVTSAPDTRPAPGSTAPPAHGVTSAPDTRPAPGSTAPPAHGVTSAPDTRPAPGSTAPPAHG

Substance	ratio of the optical density 100-mer/20-mer
E29 (antibody)	1.5 to 3
BC2 (antibody)	> 3
214D4 (antibody)	1.5 to 3
C595 (antibody)	< 1.5
B27.29 (antibody)	1.5 to 3
